# Biological target: Litopenaeus vannamei IRF, endogenous in shrimp tissues (Litopenaeus vannamei (endogenous in intestines and hepatopancreas))
# Assay: native gel or EMSA; native-PAGE of shrimp tissue samples (intestines, hepatopancreas; hemocytes as negative control) with western-blot, beta-actin as control; also hepatopancreas at times after WSSV or poly (I:C) treatment
substance,measurement,value
"Litopenaeus vannamei IRF, endogenous in shrimp tissues (natural protein)",stoichiometry N,2

# — PMC4602278
